Reference: patent US12630596B2, “Engineered lysin-human defensin protein” (priority 2018, dated 2026)
Values after ≈ are worked out from the molar mass of the structure shown. Like-named read-outs stand apart in the source and are kept apart here.

Experiments:
C. difficile R20291 [1] = test: Minimum inhibitory concentration (MIC) on strain R20291; assay type: cell-based, Clostridium difficile; conditions: strain R20291, BHIS, 37° C. for 18 h
Procedure: The minimum inhibitory concentrations (MICs) of LHD and LCD were determined using the protocol of Wiegand, et al. (Wiegand, Hilpert et al. 2008) with some modifications, as described previously (Gilmer, Schmitz et al. 2017). In brief, strain R20291 was grown in BHIS and adjusted to ˜5×10^5 cells/ml in BHIS, and distributed into the wells of a 96-well round bottom polystyrene microtiter plate. In the wells of each row, either sterile-filtered lysin or control vehicle (metronidazole, vancomycin and fidaxomicin) was added with a final concertation varied from 200 μg/ml to 0.19 μg/ml (2-fold dilution) (Wiegand, Hilpert et al. 2008). The plates were incubated at 37° C. for 18 h. The MIC was “the lowest or minimum concentration of lysin or control vehicle that prevented the formation of a cell pellet (a measure of growth) on the bottom of the wells” (Gilmer, Schmitz et al. 2017). The MICs were also confirmed by measuring the OD600 values using a Bio-Rad plate reader (Bio-Rad, Hercules, CA).

[2] = target: Glucosyltransferase (GT) activity of TcdB (Clostridioides difficile, UniProt P18177); test: TcdB glucosyltransferase activity on Rac1 in CT26 cytosolic fraction; assay type: biochemical, Clostridium difficile; conditions: TcdB 15 ng/ml, 750 ng/ml, 1 hr
Procedure: (§1) (FIG. 5A) LHD inhibits TcdB-induced cell rounding. CT26 cells in 12-well plates were exposed to HD or LHD at 750 ng/ml (50 times of TcdB concentration) or nothing for 1 hour, followed by exposure to TcdB at 15 ng/ml for 5 hours. (FIG. 5B) Western-blot analysis of non-glucosylated Rac1 in CT26 cells treated with TcdB in the presence or absence of LHD or HD. TcdB glucosylates Rac1 in cells, serving as a readout for toxin cytotoxicity. Quantitation of Rac1 levels in Western-blot was shown in low panel (*p<0.05). (FIG. 5C) CT26 cells were lysed, and the cytosolic fraction was exposed to TcdB (15 ng/ml) with or without HD at 750 ng/ml (50 times of TcdB concentration) or LHD at 1500 ng/ml (same molecular concentration as HD) or nothing for 1 h followed by Western Blot analysis using a monoclonal antibody that only recognizes non-glucosylated Rac1. β-actin was used as an equal loading control. Quantitation of Rac1 levels in Western-blot was shown in low panel (****p<0.0001).
Glucosyltransferase (GT) activity of TcdB was also measured by its ability to glucosylate Rho GTPase Rac1 in cell lysates (Zhang, Shi et al. 2013). CT26 cell pellets were resuspended in a reaction buffer (50 mM HEPES, pH 7.5, 100 mM KCl, 1 mM MnCl2 and 2 mM MgCl2), and lysed by passing through a 30 G needle for 40 times. […]

C. difficile R20291 [3] = test: Optical drop assay, lytic activity on C. difficile R20291; assay type: cell-based, Clostridium difficile; conditions: strain R20291, 200 μg/ml
Procedure: (§2) The lytic activity of proteins LHD and LCD against C. difficile strains was determined as previously described (Wang, Euler et al. 2015). Briefly, C. difficile strains were cultured in an anaerobic chamber to mid-log phase, and the bacterial pellets were harvested by centrifugation at 3000×g for 5 min. Pellets were washed twice and re-suspended in sterilized ddH2O, and resuspensions were not buffered. Prior to tests, bacterial optical density at 600 nm (OD600) was adjusted to approximately 0.8-1.0. Proteins LHD and LCD were added into the cell re-suspension with the final concentration of 200 μg/ml. The drop in OD600 at 37° C. was measured every 10 minutes for 60 min˜90 min. Bacterial re-suspension with sterilized water was also set as a control. Three repeats were included in each test.

[4] = target: Clostridium difficile toxin B (TcdB) (Clostridioides difficile, UniProt P18177); test: Inhibition of TcdB cytotoxicity in CT26 cells (cell rounding, non-glucosylated Rac1 Western blot); assay type: cell-based; conditions: pre-treatment 750 ng/ml 1 hr, TcdB 15 ng/ml 5 hrs
Procedure: as §1
It was reported that the human defensin protein HD5 (HD) could inhibit TcdB (Giesemann, Guttenberg et al. 2008). Therefore, we evaluated the inhibitory effects of LHD and HD on TcdB. Briefly, CT26 cells in 12-well plates were exposed to LHD, synthesized HD or PBS at 750 ng/ml (50 times of TcdB concentration) for 1 hr, followed by exposure to TcdB at 15 ng/ml for 5 hrs. Total cell lysates were subjected to 12% SDS-PAGE separation, and transferred onto a Nylon membrane. Following blocking for 1 hr at room temperature with 5% skim milk, the membrane was incubated overnight at 4° C. with RAC1 antibody (1:1000, Cat: 610650, BD Biosciences) and β-actin antibody (1:10000, Cat: A5441, Sigma-Aldrich).

[5] = tested on: C. difficile strains M120, VPI 10463, CD630, LC693, 1377; test: Optical drop assay, lytic activity on other clinical epidemic C. difficile strains; assay type: cell-based, Clostridium difficile; conditions: different types of clinical epidemic strains, 200 μg/ml
Text: C. difficile strains R20291 (ribotype 027), M120 (ribotype 078), VPI 10463 (ribotype 087; ATCC 43255), CD630 (ribotype 012), LC693 (ribotype unknown, ST201), and 1377 (ribotype 012) were used in this study. Strains M120 and VPI 10463 were provided by Dr. Joseph A. Sorg from Texas A&M University. Strains R20291 and CD630 were provided by Dr. Abraham L. Sonenshein from Tufts University. Strains 1377 and LC693 were epidemic clinical strains in China (Li, Liu et al. 2015, Peng, Liu et al. 2017).
as §2

[6] = Clostridioides difficile, read-out: MIC

Glucosyltransferase (GT) activity of TcdB, sequence (P18177 whole entry): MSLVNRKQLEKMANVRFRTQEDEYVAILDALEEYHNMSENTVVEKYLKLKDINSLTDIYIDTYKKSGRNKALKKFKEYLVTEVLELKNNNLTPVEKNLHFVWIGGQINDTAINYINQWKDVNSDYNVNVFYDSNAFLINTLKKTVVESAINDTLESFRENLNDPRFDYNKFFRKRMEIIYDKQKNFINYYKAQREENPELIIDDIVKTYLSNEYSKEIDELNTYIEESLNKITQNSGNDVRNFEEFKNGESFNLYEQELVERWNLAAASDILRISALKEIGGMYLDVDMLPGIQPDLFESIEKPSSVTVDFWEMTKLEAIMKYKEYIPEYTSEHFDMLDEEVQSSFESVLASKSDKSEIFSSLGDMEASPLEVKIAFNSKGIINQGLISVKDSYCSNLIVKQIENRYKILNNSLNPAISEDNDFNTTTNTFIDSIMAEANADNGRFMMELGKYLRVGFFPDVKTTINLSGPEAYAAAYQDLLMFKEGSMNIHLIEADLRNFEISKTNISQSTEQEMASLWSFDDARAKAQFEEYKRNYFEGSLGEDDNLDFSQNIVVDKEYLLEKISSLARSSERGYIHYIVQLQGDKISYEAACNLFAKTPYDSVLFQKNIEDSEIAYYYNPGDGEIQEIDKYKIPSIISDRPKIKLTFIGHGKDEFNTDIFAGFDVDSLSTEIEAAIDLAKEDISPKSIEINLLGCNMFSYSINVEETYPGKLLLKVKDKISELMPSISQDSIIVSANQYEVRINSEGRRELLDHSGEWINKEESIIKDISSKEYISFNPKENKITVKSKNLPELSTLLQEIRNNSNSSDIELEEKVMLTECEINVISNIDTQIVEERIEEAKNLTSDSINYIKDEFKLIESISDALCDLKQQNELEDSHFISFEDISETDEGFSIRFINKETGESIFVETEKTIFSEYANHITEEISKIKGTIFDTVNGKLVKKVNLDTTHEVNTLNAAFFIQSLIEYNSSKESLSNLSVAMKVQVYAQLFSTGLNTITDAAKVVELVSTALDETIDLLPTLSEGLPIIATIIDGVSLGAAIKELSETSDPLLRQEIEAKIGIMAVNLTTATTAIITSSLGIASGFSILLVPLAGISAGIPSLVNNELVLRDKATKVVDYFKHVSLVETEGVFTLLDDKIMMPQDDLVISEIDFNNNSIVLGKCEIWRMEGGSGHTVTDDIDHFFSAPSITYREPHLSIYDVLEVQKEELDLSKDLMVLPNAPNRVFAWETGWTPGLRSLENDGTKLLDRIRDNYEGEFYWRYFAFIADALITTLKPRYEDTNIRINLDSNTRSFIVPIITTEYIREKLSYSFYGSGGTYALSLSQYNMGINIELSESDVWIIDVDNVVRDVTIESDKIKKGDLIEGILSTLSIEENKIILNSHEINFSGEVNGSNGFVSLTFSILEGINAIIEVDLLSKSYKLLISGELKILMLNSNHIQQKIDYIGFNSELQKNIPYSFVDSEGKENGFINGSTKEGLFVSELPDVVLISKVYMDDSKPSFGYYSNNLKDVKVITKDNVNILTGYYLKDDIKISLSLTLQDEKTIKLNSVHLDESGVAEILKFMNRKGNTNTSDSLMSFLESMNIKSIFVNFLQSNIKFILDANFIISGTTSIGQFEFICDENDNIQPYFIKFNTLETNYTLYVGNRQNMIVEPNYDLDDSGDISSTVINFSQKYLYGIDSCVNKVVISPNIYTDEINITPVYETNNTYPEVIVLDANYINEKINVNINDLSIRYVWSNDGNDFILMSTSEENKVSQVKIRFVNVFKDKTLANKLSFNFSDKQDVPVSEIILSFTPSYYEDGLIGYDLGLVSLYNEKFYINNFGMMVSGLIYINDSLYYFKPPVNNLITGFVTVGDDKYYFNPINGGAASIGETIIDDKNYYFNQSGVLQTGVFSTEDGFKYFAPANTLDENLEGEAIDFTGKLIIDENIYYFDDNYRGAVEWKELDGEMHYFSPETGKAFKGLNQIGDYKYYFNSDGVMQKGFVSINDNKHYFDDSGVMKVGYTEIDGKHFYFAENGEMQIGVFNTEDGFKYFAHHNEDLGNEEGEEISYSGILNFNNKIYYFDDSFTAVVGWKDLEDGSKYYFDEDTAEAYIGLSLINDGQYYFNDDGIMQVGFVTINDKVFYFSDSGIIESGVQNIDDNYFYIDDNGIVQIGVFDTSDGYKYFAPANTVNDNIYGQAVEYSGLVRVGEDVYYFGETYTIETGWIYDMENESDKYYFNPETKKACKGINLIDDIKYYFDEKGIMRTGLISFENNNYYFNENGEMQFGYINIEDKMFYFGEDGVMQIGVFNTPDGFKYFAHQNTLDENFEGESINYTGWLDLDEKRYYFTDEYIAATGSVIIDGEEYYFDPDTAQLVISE
Clostridium difficile toxin B (TcdB), sequence (P18177 whole entry): as above

Molecule	MIC (C. difficile R20291 [1]; [6]) [µg/mL]	glucosyltransferase activity of TcdB [2]	lytic activity (drop in OD600) (C. difficile R20291 [3])	further results
CCc1c(Cl)c(O)c(Cl)c(O)c1C(=O)O[C@H]1[C@H](O)[C@H](OC)[C@H](OC/C2=C\C=C\C[C@H](O)/C(C)=C/[C@H](CC)[C@@H](O[C@@H]3OC(C)(C)[C@@H](OC(=O)C(C)C)[C@H](O)[C@@H]3O)/C(C)=C/C(C)=C/C[C@@H]([C@@H](C)O)OC2=O)O[C@@H]1C [Fidaxomicin, fidaxomicin]	0.25 (≈ 0.236 µM)			
Cc1ncc([N+](=O)[O-])n1CCO [Metronidazole, metronidazole]	4 (≈ 23.4 µM)			
CN[C@H](CC(C)C)C(=O)N[C@H]1C(=O)N[C@@H](CC(N)=O)C(=O)N[C@H]2C(=O)N[C@H]3C(=O)N[C@H](C(=O)N[C@H](C(=O)O)c4cc(O)cc(O)c4-c4cc3ccc4O)[C@H](O)c3ccc(c(Cl)c3)Oc3cc2cc(c3O[C@@H]2O[C@H](CO)[C@@H](O)[C@H](O)[C@H]2O[C@H]2C[C@](C)(N)[C@H](O)[C@H](C)O2)Oc2ccc(cc2Cl)[C@H]1O [Vancomycin, vancomycin]	4 (≈ 2.76 µM)			
HD5: Human alpha-defensin 5 peptide (32 aa), synthesized; SEQ ID NO:3 (ATCYCRTGRCATRESLSGVCEISGRLYRLCCR) [reference compound]		significantly inhibited	moderate lytic activity	cell rounding caused by TcdB [4]: decreased cell rounding; non-glucosylated Rac1 in cells (readout of cytotoxicity of TcdB) [4]: inhibited the cytotoxicity
LCD: Catalytic domain (179 aa) of the lysin of C. difficile phage phiC2; SEQ ID NO:2; included as a control (protein, Catalytic domain (179 aa) of the lysin of C. difficile phage phiC2; included as a control) MKICITVGHSILKSGACTSADGVVNEYQYNKSLAPVLADTFRKEGHKVDVIICPEKQFKTKNEEKSYKIPRVNSGGYDLLIELHLNASNGQGKGSEVLYYSNKGLEYATRICDKLGTVFKNRGAKLDKRLYILNSSKPTAVLIESFFCDNKEDYDKAKKLGHEGIAKLIVEGVLNKNIN		significantly inhibited	potent lytic activities	lytic activity (drop in OD600) [5]: potent lytic activities; MIC (C. difficile R20291 [1]): 1.56 µg/mL
